Target: Crosstide substrate peptide (UBI)

B1: MyrAkt3HA (full length human Akt3 fused to the myristylation signal from human Src at the N-terminus and to an HA-tag at the C-terminus) (protein)
chain: MGSNKSKPKDASQRRRSSDVTIVKEGWVQKRGEYIKNWRPRYFLLKTDGSFIGYKEKPQDVDLPYPLNNFSVAKCQLMKTERPKPNTFIIRCLQWTTVIERTFHVDTPEEREEWTEAIQAVADRLQRQEEERMNCSPTSQIDNIGEEEMDASTTHHKRKTMNDFDYLKLLGKGTFGKVILVREKASGKYYAMKILKKEVIIAKDEVAHTLTESRVLKNTRHPFLTSLKYSFQTKDRLCFVMEYVNGGELFFHLSRERVFSEDRTRFYGAEIVSALDYLHSGKIVYRDLKLENLMLDKDGHIKITDFGLCKEGITDAATMKTFCGTPEYLAPEVLEDNDYGRAVDWWGLGVVMYEMMCGRLPFYNQDHEKLFELILMEDIKFPRTLSSDAKSLLSGLLIKDPNKRLGGGPDDAKEIMRHSFFSGVNWQDVYDKKLVPPFKPQVTSETDTRYFDEEFTAQTITITPPEKCQQSDCGMLGNWKK
- Kinase activity of anti-HA immunopellets (32P incorporation into substrate peptide, scintillation counting): Kinase activity present in CMV6[MyrAkt3HA] transfected samples was 20 times higher than that present in cells transfected with the control vector CMV6

Source: patent publication US20030100049
